Results on one molecule are retold here after patent CN111875700A (CUSABIO BIOTECH CO LTD, dated 2020).

The target in the assay is T1, SARS-COV-2病毒N蛋白 (nucleocapsid protein) (SARS-COV-2, UniProt P0DTC9 1-419).
T1 construct: Recombinant N protein; also called 核衣壳蛋白
Kind of assay: ELISA of scFv supernatants on coated N protein, detected with anti-E/HRP.

B1: 1A6单链抗体 (1A6 scFv) (scFv)
scFv: EVKLKESGAELVKPGASVKLSCTASGFNIKDTYMHWVKQRPGQGLEWIGYINPSTGYTEYNQKFKDKATLTADKSSSTAYMQLSSLTSEDSAVYYCARDALGWYFDVWGAGTLVTVSTGGGGSGGGGSGGGGSDVVMTQSHKFMSTSVGDRVSVTCKASQNVGTNVAWYQQKPGQFPKALIYSASYRYSGVPDRFTGSGSGTDFTLTISNVQSEDLAEYFCQQYNSYPLTFGAGTKLEIK
notes: also called 1A6 single-chain antibody; not shown: E-tag from vector pCANTAB5E (detected with anti-E/HRP)
B1: the binding result is “binds”.
